Test results from publication PMC7235819, “Advanced Resistance Studies Identify Two Discrete Mechanisms in Staphylococcus aureus to Overcome Antibacterial Compounds that Target Biotin Protein Ligase” (Antibiotics, 2020).
Converted amounts (≈) assume the structure as drawn.

Experiments:
[1] = system: O=C(O)CCCC[C@@H]1SC[C@@H]2NC(=O)N[C@@H]21; experiment: in vitro protein biotinylation assay, Km; assay type: biochemical, Staphylococcus aureus; conditions: MgATP biotin-binding pocket (biotin-binding loop residues […])
[2] = system: T1, Staphylococcus aureus NCTC-8325; experiment: microbe, parasite or virus in culture; set-up: antimicrobial susceptibility assay, MIC, growth inhibition of S. aureus parent strain; conditions: NCTC8325
T1 construct: NCTC 8325
Method: The ability of S. aureus to develop resistance to BASA was investigated using both spontaneous resistance and serial passage approaches. The S. aureus NCTC 8325 strain was selected due to the availability of a sequenced reference genome for comparative sequence analysis. To measure the rate at which spontaneous resistance develops, 10^9 S. aureus cells were plated onto media containing four times the MIC of BASA. No resistant mutants grew after 24 hours which equates to a calculated resistance frequency of <10^−9 at this inhibitor concentration. BASA resistant S. aureus strains were subsequently generated by the serial passage of seven populations of S. aureus NCTC 8325 in sub-inhibitory concentrations of BASA for 18 days at which time individual colonies were isolated. These were then passaged on non-selective media to verify that the inherited resistance was genetically stable. The sensitivity of the strains to BASA was then established using antimicrobial sensitivity assays (Table 2 and Figure S8A). The isotypic parent strain was highly sensitive to BASA, with an MIC of 0.0625 µg/mL. […] To determine if there was a fitness cost associated with these mutations, in vitro growth curves for the seven strains were analyzed and doubling times calculated (Table 2, Figure S8B). […] To test if the resistance mechanisms identified were specific for BASA, all seven strains were subjected to antibacterial susceptibility assays against a panel of diverse antibiotics that included two known BPL inhibitors, namely biotinol-5′-AMP [32] and BPL223 (compound 4c in [30]). The evolved resistance mechanisms appeared specific to the BPL inhibitors as there was no change in susceptibility to β-lactams amoxicillin and methicillin (Table S1).

[3] = system: O=C(O)CCCC[C@@H]1SC[C@@H]2NC(=O)N[C@@H]21; experiment: purified protein; conditions: MgATP biotin-binding pocket (biotin-binding loop residues […])
[4] = biological target: Staphylococcus aureus biotin protein ligase (SaBPL), wildtype (S. aureus Mu50); experiment: native MS; native nESI-MS (Waters Synapt G1 HDMS), holo protein (biotinyl-5'-AMP bound); 10 uM wildtype SaBPL; SaBPL-D200E at 1.4 to 90 uM; monomer to dimer
[5] = biological target: T2, biotin protein ligase (SaBPL) (Staphylococcus aureus, UniProt A0A3A5LBF0); experiment: native nESI-MS of holo protein (homodimer); assay type: binding
T2 construct: gene birA; recombinant SaBPL

[6] = biological target: T3, biotin protein ligase (SaBPL-D200E) (Staphylococcus aureus, UniProt A0A3A5LBF0, D200E); experiment: native nESI-MS of holo protein (monomer); assay type: binding
T3 construct: gene birA; recombinant SaBPL-D200E

[7] = biological target: SaBPL (biotin protein ligase, BirA) wild type (Staphylococcus aureus Mu50, UniProt A0A0H3JRH8 1-323); experiment: EMSA; 100 uM biotin + MgATP, 2.5% DMSO (control for BASA); EMSA adapted from cited protocols; buffer, salt, pH and temperature not given; BASA or biotin at 100 uM with 2.5% DMSO in the Fig S7 assays; conditions: protein: recombinant

Question: With “biotin protein ligase (SaBPL-D200E) (Staphylococcus aureus; D200E)” as the molecule, how does the Km [1] read?
Answer: The Km was 3.8 ± 0.4 µM.

Question: `CC1(C)S[C@@H]2[C@H](NC(=O)[C@H](N)c3ccc(O)cc3)C(=O)N2[C@H]1C(=O)O` [amoxicillin] was tested. Which MIC [2] did it give?
Answer: Its MIC is 16 µg/mL (≈ 43.8 µM).

Question: With “biotin protein ligase (SaBPL) (Staphylococcus aureus)” as the molecule, how does the Km [3] read?
Answer: The Km was 1.8 ± 0.3 µM.

Question: Which stoichiometry N [4] does the source give for “Staphylococcus aureus biotin protein ligase (SaBPL), wildtype (enzyme)” here?
Answer: The stoichiometry N was 2.

Question: How did the MIC [2] turn out when `Nc1ncnc2c1ncn2[C@@H]1O[C@H](COP(=O)(O)OCCCCC[C@@H]2SC[C@@H]3NC(=O)N[C@@H]32)[C@@H](O)[C@H]1O` [biotinol-5'-AMP, biotinol-5′-AMP] was run?
Answer: Its MIC is 1 µg/mL (≈ 1.79 µM).

Question: Which MIC [2] does the source give for `COc1cccc(OC)c1C(=O)N[C@@H]1C(=O)N2[C@@H]1SC(C)(C)[C@@H]2C(=O)O` [methicillin] here?
Answer: Its MIC is 2 µg/mL (≈ 5.26 µM).

Question: What does the source list for `Nc1ncnc2c1ncn2[C@@H]1O[C@H](COP(=O)(O)OC(=O)CCCC[C@@H]2SC[C@@H]3NC(=O)N[C@@H]32)[C@@H](O)[C@H]1O` [biotinyl-5′-AMP]?
Answer: native nESI-MS of holo protein (homodimer) [5]: SaBPL underwent a well-characterized monomer-to-dimer transition induced by biotinyl-5′-AMP (Figure 3A,B); native nESI-MS of holo protein (monomer) [6]: native nESI–MS provided sufficient mass resolution to confirm the presence of bound biotinyl-5′-AMP

B1: bioO (dsDNA)
DNA 1: CCTTAAATGTAAACTTTTATAATTAATAAGTTTACATTTAAG
DNA 2: CCTTAAATGTAAACTTATTAATTATAAAAGTTTACATTTAAGG
Question: Does B1 bind ([7]; bottom strand 5' overhang 1 nt as printed (top 42 nt lacks the final G))?
Answer: Result: binds

B2: bioY (dsDNA)
DNA 1: AACTTATTGTAAACTTTTCATTTCTTAAAGTTTACAATGGTGCT
DNA 2: AGCACCATTGTAAACTTTAAGAAATGAAAAGTTTACAATAAGTT
Question: Does B2 bind ([7]; blunt)?
Answer: Result: binds
